Biological target: syntrophin PDZ domain (UniProt Q61234)

With “VKESLV ligand (syntrophin PDZ ligand) (peptide)” the Kd was 1970 nM.
